Source: publication PMC4757827 (2016)

Molecular target: recombinant importin α1 (construct not stated for this experiment) (Homo sapiens (Human), UniProt P52292)
Test: ELISA

B1: IFN-γ (recombinant) (protein)
chain: QDPYVKEAENLKKYFNAGHSDVADNGTLFLGILKNWKEESDRKIMQSQIVSFYFKLFKNFKDDQSIQKSVETIKEDMNVKFFNSNKKKRDDFEKLTNYSVTDLNVQRKAIHELIQVMAELSPAAKTGKRKRSQMLFRG
B1: no binding.
